Literature values, collected in US20250326839A1, “TREATMENT OF DISEASES RELATED TO COLONY-STIMULATING FACTOR 1 RECEPTOR DYSFUNCTION USING TREM2 AGONISTS” (Vigil Neuroscience, Inc., priority 2020, published 2025).
Where a chain is given by its changes, count along the chain named. In names and notes the source's numbering stands. Where two headings read alike, the source gives them in different places. Marks after values point to notes of the source that are not given here.

B1: V87: 6E7 variant: VH T30R, T58V, S63D, Q99S; VL N56W (antibody, V domains shown)
VH: EVQLVQSGAEVKKPGESLKISCKGSGYSFRSYWIAWVRQMPGKGLEWMGIIYPGDSDVRYSPDFQGQVTISADKSISTAYLQWSSLKASDTAMYFCARSRTFYYDSSDYFDYWGQGTLVTVSS
VL: DIQMTQSPSSVSASVGDRVTITCRASQGISSWLAWYQQKPGKAPKLLIYAASSLQWGVPSRFSGSGSGTDFTLTISSLQPEDFATYFCQQADSFPRTFGQGTKLEIK
B2: V88: 6E7 variant: VH T30G; VL S53R, N56R, F94S (antibody, V domains shown)
VH: B1 VH with R30G, V58T, D63S, S99Q
VL: B1 VL with S53R, W56R, F94S
B3: V15: 6E7 variant: VH T30A, I50T, Q99S; VL S53W, F94Y (antibody, V domains shown)
VH: B1 VH with R30A, I50T, V58T, D63S
VL: B1 VL with S53W, W56N, F94Y
B4: V28: 6E7 variant: VH T30Q, I50T, Y103F; VL N56S, F94L (antibody, V domains shown)
VH: B1 VH with R30Q, I50T, V58T, D63S, S99Q, Y103F
VL: B1 VL with W56S, F94L
B5: V17: 6E7 variant: VH T30G, Q99S; VL L54R, F94S (antibody, V domains shown)
VH: B1 VH with R30G, V58T, D63S
VL: B1 VL with L54R, W56N, F94S
B6: V27: 6E7 variant: VH S61A, Q99S; VL N56R (antibody, V domains shown)
VH: B1 VH with R30T, V58T, S61A, D63S, A97V
VL: B1 VL with W56R
B7: V14: 6E7 variant: VH T30G, S56Q, Q99G; VL S53R (antibody, V domains shown)
VH: B1 VH with R30G, S56Q, V58T, D63S, S99G
VL: B1 VL with S53R, W56N
B8: V16: 6E7 variant: VH F29M, S56G, Q99S; VL S53N (antibody, V domains shown)
VH: B1 VH with F29M, R30T, S56G, V58T, D63S
VL: B1 VL with S53N, W56N
B9: V26: 6E7 variant: VH A35G, I50T, F102M, Y112A; VL N56R, F94Y (antibody, V domains shown)
VH: B1 VH with R30T, A35G, I50T, V58T, D63S, S99Q, F102M, Y112A
VL: B1 VL with W56R, F94Y
B10: V25: 6E7 variant: VH T30G, I50L, Q99S; VL Q55A, F94M (antibody, V domains shown)
VH: B1 VH with R30G, I50L, V58T, D63S
VL: B1 VL with Q55A, W56N, F94M
B11: V13: 6E7 variant: VH T30G, P62A, Q99G; VL N56G, F94M (antibody, V domains shown)
VH: B1 VH with R30G, V58T, P62A, D63S, S99G
VL: B1 VL with W56G, F94M
B12: V24: 6E7 variant: VH T58V, Q99S; VL N56K, R96H (antibody, V domains shown)
VH: B1 VH with R30T, D63S
VL: B1 VL with W56K, R96H
B13: V90: 6E7 variant: VH Y32E; VL S31R (antibody, V domains shown)
VH: B1 VH with R30T, Y32E, V58T, D63S, S99Q
VL: B1 VL with S31R, W56N

Target: T1, TREM2 (Homo sapiens, UniProt Q9NZC2)
T1 sequence (Q9NZC2 19-230): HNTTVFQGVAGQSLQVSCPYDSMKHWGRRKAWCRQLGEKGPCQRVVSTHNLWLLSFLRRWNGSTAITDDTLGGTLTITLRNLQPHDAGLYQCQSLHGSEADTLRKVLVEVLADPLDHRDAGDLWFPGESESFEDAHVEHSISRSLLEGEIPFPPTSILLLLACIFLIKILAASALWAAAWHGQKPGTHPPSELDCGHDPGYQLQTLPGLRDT
Details: cited from earlier work

[1] = 10 nM Ab concentration (values not marked *)

Row | Molecule | Binding Signal (fold over 6E7 parental antibody) 1st screen 110 nM or 10 nM [1] | Binding Signal (fold over 6E7 parental antibody) 2nd screen 2 nM (2nd screen) | Binding Signal (fold over 6E7 parental antibody) 2nd screen 10 nM (2nd screen) | Binding Signal (fold over 6E7 parental antibody) 1st screen 110 nM or 10 nM (110 nM Ab concentration (values marked *)) | Binding Signal (fold over 6E7 parental antibody) 2nd screen 100 nM (2nd screen, 100 nM)
1 | B1 | 3.84 fold over 6E7 parental antibod | 4.86 fold over 6E7 parental antibod | 3.93 fold over 6E7 parental antibod |  | 
2 | B2 | 4.92 fold over 6E7 parental antibod | 5.57 fold over 6E7 parental antibod | 5.30 fold over 6E7 parental antibod |  | 
3 | B3 | 5.23 fold over 6E7 parental antibod | 4.72 fold over 6E7 parental antibod | 4.78 fold over 6E7 parental antibod |  | 
4 | B4 | 3.08 fold over 6E7 parental antibod | 2.63 fold over 6E7 parental antibod | 3.61 fold over 6E7 parental antibod |  | 
5 | B5 | 5.37 fold over 6E7 parental antibod | 4.22 fold over 6E7 parental antibod | 5.51 fold over 6E7 parental antibod |  | 
6 | B6 | 5.50 fold over 6E7 parental antibod | 5.67 fold over 6E7 parental antibod | 5.69 fold over 6E7 parental antibod |  | 
7 | B7 | 4.71 fold over 6E7 parental antibod | 2.57 fold over 6E7 parental antibod | 4.64 fold over 6E7 parental antibod |  | 
8 | B8 | 4.01 fold over 6E7 parental antibod | 3.57 fold over 6E7 parental antibod | 4.04 fold over 6E7 parental antibod |  | 
9 | B9 | 3.57 fold over 6E7 parental antibod | 2.83 fold over 6E7 parental antibod | 3.47 fold over 6E7 parental antibod |  | 
10 | B10 | 4.23 fold over 6E7 parental antibod | 3.15 fold over 6E7 parental antibod | 4.70 fold over 6E7 parental antibod |  | 
11 | B11 | 1.31 fold over 6E7 parental antibod | 1.15 fold over 6E7 parental antibod | 1.35 fold over 6E7 parental antibod |  | 
12 | B12 | 2.64 fold over 6E7 parental antibod | 1.42 fold over 6E7 parental antibod | 2.90 fold over 6E7 parental antibod |  | 
13 | B13 |  |  |  | 0.33* fold over 6E7 parental antibod | 0.36 fold over 6E7 parental antibod
